According to patent publication US20020182172A1, “Water-soluble polymer conjugates of triazine derivatives” (Shearwater Corporation, priority 2000, published 2002):

Experiment: Stability study in D2O (formaldehyde release monitored by NMR; MALDI-TOF of hydrolyzed product)
Method: Compound III, V, and XIV (6 mg) were separately dissolved in 0.75 ml of D2O and stored at 37° C. The methylene peak disappearance as well as methyl peak shift were monitored by 300 MHz NMR over time. The half-life of the formaldehyde release reaction was monitored using first order kinetics.

Substance | half-life (t1/2) of the formaldehyde release reaction | dimerization (MALDI-TOF spectrum of hydrolyzed compound) (after hydrolysis in D2O at 37° C.)
2-mPEGyloxy5k-4,6-di-(N-methyl-N-hydroxymethylamino)-1,3,5-triazine [Compound III] | 81 h | –
2-mPEGyloxy350-4,6-di-(N-methyl-N-hydroxymethylamino)-1,3,5-triazine [V] | 81 h | no detectable dimerization
